Data published in IntAct's records for PubMed 17997972.

B1: Nuclear distribution protein nudE-like 1 (Homo sapiens), Q9GZM8 (parent)
chain: MDGEDIPDFSSLKEETAYWKELSLKYKQSFQEARDELVEFQEGSRELEAELEAQLVQAEQRNRDLQADNQRLKYEVEALKEKLEHQYAQSYKQVSVLEDDLSQTRAIKEQLHKYVRELEQANDDLERAKRATIVSLEDFEQRLNQAIERNAFLESELDEKESLLVSVQRLKDEARDLRQELAVRERQQEVTRKSAPSSPTLDCEKMDSAVQASLSLPATPVGKGTENTFPSPKAIPNGFGTSPLTPSARISALNIVGDLLRKVGALESKLAACRNFAKDQASRKSYISGNVNCGVLNGNGTKFSRSGHTSFFDKGAVNGFDPAPPPPGLGSSRPSSAPGMLPLSV
partner: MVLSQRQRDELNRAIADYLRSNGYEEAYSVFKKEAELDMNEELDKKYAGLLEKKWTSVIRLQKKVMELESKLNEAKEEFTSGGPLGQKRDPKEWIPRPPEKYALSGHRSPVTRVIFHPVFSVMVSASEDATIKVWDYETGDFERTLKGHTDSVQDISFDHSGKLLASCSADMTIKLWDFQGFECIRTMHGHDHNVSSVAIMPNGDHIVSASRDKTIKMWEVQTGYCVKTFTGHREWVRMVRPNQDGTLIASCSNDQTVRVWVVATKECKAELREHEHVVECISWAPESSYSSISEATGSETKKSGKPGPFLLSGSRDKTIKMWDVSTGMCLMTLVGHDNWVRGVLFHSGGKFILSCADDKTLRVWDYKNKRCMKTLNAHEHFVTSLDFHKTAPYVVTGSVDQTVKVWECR

Variants of: B1
Settings: with lis1_mouse Pafah1b1, P63005

effect of a mutation on the interaction	Variant
disrupting interaction	R130A
disrupting interaction	E119A
